In patent publication US20230312722A1 (NONA BIOSCIENCES SUZHOU, published 2023):

Legend:
[1] = target: T1, human B7H4 on the cell surface (human, UniProt Q7Z7D3 25-282); assay: FACS, CHOK1/hu B7H4 cells
T1 construct: whole, on cells; also called CHOK1/hu B7H4; B7H4 on SK-BR-3
T1 sequence (looked up): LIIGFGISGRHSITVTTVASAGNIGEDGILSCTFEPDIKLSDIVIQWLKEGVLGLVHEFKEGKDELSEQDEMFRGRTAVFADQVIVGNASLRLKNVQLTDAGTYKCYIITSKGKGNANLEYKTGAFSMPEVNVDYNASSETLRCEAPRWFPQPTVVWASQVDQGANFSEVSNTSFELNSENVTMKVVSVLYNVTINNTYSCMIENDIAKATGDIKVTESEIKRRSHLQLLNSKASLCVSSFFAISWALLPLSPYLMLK
Description: (§1) This example is intended to investigate the in vitro binding activity of anti-human B7H4 H2L2 monoclonal antibody to human/cynomolgus monkey/mouse B7H4. Antibody binding experiments at the cellular level were performed using CHOK1 cell line overexpressing human B7H4 (CHOK1/hu B7H4, Harbour BioMed), CHOK1 cell line overexpressing cynomolgus monkey B7H4 (CHOK1/cyno B7H4, Harbour BioMed), CHOK1 cell line overexpressing mouse B7H4 (CHOK1/m B7H4, Harbour BioMed) and SK-BR-3 cell line (ATCC® HTB-30) highly expressing human B7H4. Briefly, CHOK1/hu B7H4 cells, CHOK1/cyno B7H4 cells, CHOK1/m B7H4 cells or SK-BR-3 cells were digested and resuspended with PBS containing 2% BSA. The cell density was adjusted to 1×10⁶ cells/mL. The cells were seeded in a 96-well V-bottom plate (Corning, #3894) at 100 μL/well, followed by the addition of test antibodies diluted in a 3-fold concentration gradient of 2 times the final concentration, each at 100 μL/well. The cells were incubated at 4° C. for 2 h away from light. Thereafter, the cells in each well were rinsed twice with 100 μL of pre-cooled PBS containing 2% BSA, and centrifuged at 500 g at 4° C. for 5 min, and then the supernatant was discarded. Then 100 μL of a fluorescent secondary antibody (Alexa Fluor 488-conjugated AffiniPure Goat Anti-Human IgG, Fcγ Fragment Specific, Jackson, #109-545-098, 1:500 diluted) was added to each well. The plate was incubated away from light at 4° C. for 1 h. The cells in each well were washed twice with 100 μL of pre-cooled PBS containing 2% BSA, and centrifuged at 500 g at 4° C. for 5 minutes, and then the supernatant was discarded. Finally, the cells in each well were resuspended with 200 μL of pre-cooled PBS containing 2% BSA, and the fluorescence signal values were read using an ACEA Novocyte3000 flow cytometer.

[2] = target: T2, B7-H4 (Acro Biosystems, #B74-H82E2) (UniProt Q7Z7D3 29-258); assay: BLI epitope competition; 1st Ab = row; competitor (2nd Ab) PR002418; inhibition of the 2nd Ab signal
T2 construct: Bought protein; also called B7-H4 captured on SA sensor
T2 sequence (looked up): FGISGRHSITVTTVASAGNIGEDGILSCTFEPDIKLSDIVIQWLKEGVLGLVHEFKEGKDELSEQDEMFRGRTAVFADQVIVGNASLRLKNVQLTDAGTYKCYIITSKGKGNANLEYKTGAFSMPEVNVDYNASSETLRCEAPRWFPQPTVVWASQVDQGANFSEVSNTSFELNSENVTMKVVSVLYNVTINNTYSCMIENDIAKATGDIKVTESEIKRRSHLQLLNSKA
Description: Step one, acquisition of 100% signal of antibodies: B7-H4 (Acro Biosystems, #B74-H82E2-200 μg) was captured at a capture height of 0.25 nm using an SA sensor (Fortebio, #18-5019). The sensor was equilibrated in a buffer for 120 s and then immersed in each antibody diluted to 100 nM for 240 s, and the final signal of the antibody binding to B7-H4 was recorded as the 100% signal of the antibody. Step two, epitope competition experiment: B7-H4 was captured using an SA sensor at a capture height of 0.25 nm. The sensor was immersed in a primary antibody (at a concentration of 100 nM) for 240 s, and then the SA sensor was immersed in a mixture of the primary and secondary antibodies (both at a final concentration of 100 nM) for 240 s, and the difference in signals after immersion of the sensor in the antibody mixture was recorded as the signal of the antibody as the secondary antibody. The inhibition rate was calculated according to the following formula: […]

[3] = target: T1, human B7H4 on the cell surface; assay: FACS on MDA-MB-468 cells
[4] = target: T3, cynomolgus monkey B7H4 on the cell surface (cynomolgus monkey, UniProt A0A2K5U6P5 25-282); assay: FACS, CHOK1/cyno B7H4 cells
T3 construct: whole, on cells; also called CHOK1/cyno B7H4
T3 sequence: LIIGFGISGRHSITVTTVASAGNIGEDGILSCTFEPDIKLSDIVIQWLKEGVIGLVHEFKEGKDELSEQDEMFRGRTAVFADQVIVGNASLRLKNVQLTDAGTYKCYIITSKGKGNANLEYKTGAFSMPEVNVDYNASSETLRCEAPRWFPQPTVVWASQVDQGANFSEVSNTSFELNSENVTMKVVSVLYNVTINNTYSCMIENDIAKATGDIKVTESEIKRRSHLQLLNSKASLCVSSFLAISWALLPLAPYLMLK
Description: as §1

[5] = target: T4, mouse B7H4 on the cell surface (mouse, UniProt Q7TSP5 25-257); assay: FACS, CHOK1/m B7H4 cells
T4 construct: whole, on cells; also called CHOK1/m B7H4
T4 sequence (looked up): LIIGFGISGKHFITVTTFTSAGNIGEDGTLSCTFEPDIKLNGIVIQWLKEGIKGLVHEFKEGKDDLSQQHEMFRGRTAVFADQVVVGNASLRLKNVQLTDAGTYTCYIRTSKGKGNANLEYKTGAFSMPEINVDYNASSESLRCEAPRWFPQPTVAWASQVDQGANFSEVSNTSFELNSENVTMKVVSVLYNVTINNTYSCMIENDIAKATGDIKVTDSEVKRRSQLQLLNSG
Description: as §1, with “Then 100 μL of a fluorescent secondary antibody (Alexa Fluor 488-conjugated AffiniPure Goat Anti-Human IgG, Fcγ Fragment Specific, Jackson, #109-545-098, 1:500 diluted) was added to each well. The plate was incubated away from light at 4° C. for 1 h. The cells in each well were washed twice with 100 μL of pre-cooled PBS containing 2% BSA, and centrifuged at 500 g at 4° C. for 5 minutes, and then the supernatant was discarded.” left out

- EC50 [1]: 1.94 nM
- Maximum MFI [1]: 1.84e+06 MFI
- Competitive inhibition rate (%) [2]: 4.55%
- EC50 (read off the curve) [3]: ~0.2 µg/mL
- EC50 [4]: 2.06 nM
- Maximum MFI [4]: 1.32e+06 MFI
- EC50 [5]: 1.73 nM
- Maximum MFI [5]: 1.75e+06 MFI
B1: Control antibody 1 (PR000157) (antibody, V domains shown)
VH: EVQLVQSGAEVKKPGASVKVSCKASGYTFTSYWIGWVRQAPGQGLEWIGDIYPGGGYTNYNEKFKGRVTITRDTSTSTAYLELSSLRSEDTAVYYCARLAGSSYRGAMDSWGQGTLVTVSS
VL: DIQMTQSPSSLSASVGDRVTITCKASQGFNKYVAWYQQKPGKAPKLLIYYTSTLQPGVPSRFSGSGSGRDYTLTISSLQPEDFATYYCLQYGDLLYAFGQGTKVEIKR
notes: Anti-B7H4 IgG1 control antibody from WO2016040724A1; also called 1D11.v1.9varC2
